Patent US20220227845A1

Biological target: HIV-1 Env of the 208-pseudovirus panel (Table 1)
Test: cell-based or functional assay

Row | Binder | virus isolate coverage (neutralization breadth), 208-virus panel | IC50 geomean, neutralization of 208-virus panel
1 | 35O22 (antibody, V domains shown) VH: QGQLVQSGAELKKPGASVKISCKTSGYRFNFYHINWIRQTAGRGPEWMGWISPYSGDKNLAPAFQDRVIMTTDTEVPVTSFTSTGAAYMEIRNLKFDDTGTYFCAKGLLRDGSSTWLPYLWGQGTLLTVSS VL: QSVLTQSASVSGSLGQSVTISCTGPNSVCCSHKSISWYQWPPGRAPTLIIYEDNERAPGISPRFSGYKSYWSAYLTISDLRPEDETTYYCCSYTHNSGCVFGTGTKVSVL | 45.2% | –
2 | PentaNAb2.0 ScFv (10E8v4_S100cF-5X-35O22-5X-N6-5X-PGT121-5X-VRC26.25-His) (scFv) scFv: SELTQDPAVSVALKQTVTITCRGDSLRSHYASWYQKKPGQAPVLLFYGKNNRPSGIPDRFSGSASGNRASLTITGAQAEDEADYYCSSRDKSGSRLSVFGGGTKLTVLGGGGSGGGGSGGGGSEVRLVESGGGLVKPGGSLRLSCSASGFDFDNAWMTWVRQPPGKGLEWVGRITGPGEGWSVDYAESVKGRFTISRDNTKNTLYLEMNNVRTEDTGYYFCARTGKYYDFWFGYPPGEEYFQDWGQGTLVIVSSGGGGSGGGGSGGGGSGGGGSGGGGSQSVLTQSASVSGSLGQSVTISCTGPNSVCCSHKSISWYQWPPGRAPTLIIYEDNERAPGISPRFSGYKSYWSAYLTISDLRPEDETTYYCCSYTHNSGCVFGTGTKVSVLGGGGSGGGGSGGGGSQGQLVQSGAELKKPGASVKISCKTSGYRFNFYHINWIRQTAGRGPEWMGWISPYSGDKNLAPAFQDRVIMTTDTEVPVTSFTSTGAAYMEIRNLKFDDTGTYFCAKGLLRDGSSTWLPYLWGQGTLLTVSSGGGGSGGGGSGGGGSGGGGSGGGGSYIHVTQSPSSLSVSIGDRVTINCQTSQGVGSDLHWYQHKPGRAPKLLIHHTSSVEDGVPSRFSGSGFHTSFNLTISDLQADDIATYYCQVLQFFGRGSRLHIKGGGGSGGGGSGGGGSRAHLVQSGTAMKKPGASVRVSCQTSGYTFTAHILFWFRQAPGRGLEWVGWIKPQYGAVNFGGGFRDRVTLTRDVYREIAYMDIRGLKPDDTAVYYCARDRSYGDSSWALDAWGQGTTVVVSAGGGGSGGGGSGGGGSGGGGSGGGGSSDISVAPGETARISCGEKSLGSRAVQWYQHRAGQAPSLIIYNNQDRPSGIPERFSGSPDSPFGTTATLTITSVEAGDEADYYCHIWDSRVPTKWVFGGGTTLTVLGGGGSGGGGSGGGGSQMQLQESGPGLVKPSETLSLTCSVSGASISDSYWSWIRRSPGKGLEWIGYVHKSGDTNYSPSLKSRVNLSLDTSKNQVSLSLVAATAADSGKYYCARTLHGRRIYGIVAFNEWFTYFYMDVWGNGTQVTVSSGGGGSGGGGSGGGGSGGGGSGGGGSQSVLTQPPSVSAAPGQKVTISCSGNTSNIGNNFVSWYQQRPGRAPQLLIYETDKRPSGIPDRFSASKSGTSGTLAITGLQTGDEADYYCATWAASLSSARVFGTGTKVIVLVGGGGSGGGGSGGGGSQVQLVESGGGVVQPGTSLRLSCAASQFRFDGYGMHWVRQAPGKGLEWVASISHDGIKKYHAEKVWGRFTISRDNSKNTLYLQMNSLRPEDTALYYCAKDLREDECEEWWSDYYDFGKQLPCAKSRGGLVGIADNWGQGTMVTVSSGSGHHHHHH | 99.6% | 6 ng/mL
